Reference: US5962294A, “Compositions and methods for the identification and synthesis of sialyltransferases” (The Regents of the University of California, priority 1993, dated 1999)

Legend:
ST3 = target: T1, ST3 (Homo sapiens, UniProt Q11206); assay: Acceptor specificity of soluble ST3 (AZ3, concentrated COS-1 media); type: biochemical
T1 construct: A truncated form of ST3, lacking the first 39 amino acids of the long-form open reading frame; made in house; host or cells: COS-1 (concentrated culture medium)
T1 sequence (Q11206 41-333): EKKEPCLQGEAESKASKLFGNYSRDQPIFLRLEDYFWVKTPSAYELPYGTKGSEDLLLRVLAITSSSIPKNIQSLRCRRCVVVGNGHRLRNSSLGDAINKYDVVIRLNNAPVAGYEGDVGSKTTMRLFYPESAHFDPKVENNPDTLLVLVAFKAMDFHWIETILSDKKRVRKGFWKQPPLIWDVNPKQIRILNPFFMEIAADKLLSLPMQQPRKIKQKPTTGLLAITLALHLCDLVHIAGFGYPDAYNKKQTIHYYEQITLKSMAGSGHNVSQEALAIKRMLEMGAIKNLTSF

α2,3-N sialyltransferase = target: T2, α2,3-N sialyltransferase (Rattus norvegicus, UniProt Q02734); assay: Sialyltransferase assay of soluble rat α2,3-N secreted from COS-1 cells (pBD122); type: biochemical
T2 construct: made in house; host or cells: COS-1 (concentrated culture medium, plasmid pBD122)
T2 sequence (Q02734 29-374 limits assumed): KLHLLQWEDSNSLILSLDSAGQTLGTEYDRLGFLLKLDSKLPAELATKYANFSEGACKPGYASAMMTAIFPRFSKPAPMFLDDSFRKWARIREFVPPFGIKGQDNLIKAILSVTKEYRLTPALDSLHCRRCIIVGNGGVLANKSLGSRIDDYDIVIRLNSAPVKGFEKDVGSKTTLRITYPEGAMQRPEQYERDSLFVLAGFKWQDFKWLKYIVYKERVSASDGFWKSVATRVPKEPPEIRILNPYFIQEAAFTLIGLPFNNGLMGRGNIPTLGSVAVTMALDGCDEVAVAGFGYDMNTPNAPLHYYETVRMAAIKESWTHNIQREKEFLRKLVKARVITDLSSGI
Procedure: In order to produce a soluble form of the sialyltransferase for enzymatic characterization, a fusion protein containing the catalytic domain of the enzyme and the insulin cleavable signal sequence was constructed in the mammalian expression vector pSVL (Pharmacia). […] PCR reactions were carried out as described above with annealing temperature at 55° C.

ST3O = target: T3, ST3O (Sus scrofa, UniProt Q02745); assay: Acceptor specificity of ST3O (Table 4); settings: acceptor 0.2 mM
T3 sequence (Q02745 28-343 limits assumed): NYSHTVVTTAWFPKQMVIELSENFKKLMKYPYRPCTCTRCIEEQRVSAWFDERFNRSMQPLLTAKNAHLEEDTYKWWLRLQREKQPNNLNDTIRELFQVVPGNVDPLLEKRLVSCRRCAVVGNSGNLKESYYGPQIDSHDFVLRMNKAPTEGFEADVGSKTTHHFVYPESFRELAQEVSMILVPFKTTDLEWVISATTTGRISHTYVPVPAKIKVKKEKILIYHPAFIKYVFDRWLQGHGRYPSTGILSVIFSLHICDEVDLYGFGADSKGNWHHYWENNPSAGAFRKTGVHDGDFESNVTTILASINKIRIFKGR

ST3N = target: T4, ST3N (Rattus norvegicus, UniProt Q02734); assay: Acceptor specificity of ST3N (Table 4); settings: acceptor 0.2 mM
T4 sequence (Q02734 29-374 limits assumed): T2 sequence (Q02734 29-374 limits assumed)

rat ST3N = target: T5, rat ST3N (Rattus norvegicus, UniProt Q02734); assay: Acceptor specificity of soluble rat ST3N fusion protein (Table 3); settings: acceptor 0.2 mM; relative to LNT
T5 sequence (Q02734 29-374 limits assumed): T2 sequence (Q02734 29-374 limits assumed)

human ST3N = target: T6, human ST3N (Homo sapiens, UniProt Q11203); assay: Acceptor specificity of soluble human ST3N (protein A fusion from COS-1 cells, on IgG Sepharose); settings: acceptor 0.2 mM; relative to LNT
T6 sequence (Q11203 62-375): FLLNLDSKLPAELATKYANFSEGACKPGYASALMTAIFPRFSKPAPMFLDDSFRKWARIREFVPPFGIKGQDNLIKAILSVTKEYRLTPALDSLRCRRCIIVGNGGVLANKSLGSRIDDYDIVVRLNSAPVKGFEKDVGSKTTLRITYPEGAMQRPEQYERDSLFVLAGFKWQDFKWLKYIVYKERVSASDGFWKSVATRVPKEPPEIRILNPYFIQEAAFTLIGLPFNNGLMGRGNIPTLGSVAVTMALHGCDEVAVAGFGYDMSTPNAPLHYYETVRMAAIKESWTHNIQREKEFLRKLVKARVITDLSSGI

## Asialo-α1 -acid glycoprotein: glycoprotein acceptor (Galβ1,4GlcNAc-R)
ST3
  acceptor substrate for ST3 enzyme (in words): sialic acid was incorporated
α2,3-N sialyltransferase
  acceptor utilisation by secreted α2,3-N enzyme: capable of sialylating
ST3O
  Relative rate (%) ST30: 0%
ST3N
  Relative rate (%) ST3N: 9%
Rat ST3N
  Relative activity (%) Rat: 9%
Human ST3N
  Relative activity (%) Human: 14%
